# In CN113388031A (SHANGHAI INSTITUTE FOR ADVANCED STUDY OF ZHEJIANG UNIV, dated 2021):
# B1: 单克隆抗体35B5 (monoclonal antibody 35B5) (antibody, V domains shown, not shown: large carriers)
# VH: QVQLLESGGGLVQPGRSLRLSCAASGFTFDDYAMHWVRQAPGKGLEWVSGVSWNSGTIGYADSVKGRFTISRDNAKNSLYLHMRSLRAEDTALYYCAKAVEMVRGLMGLGADPEYGMDVWGQGTTVTVSS
# VL: not shown
# Assays:
# [1] = target: SARS-CoV-2突变株501Y.V2 (B.1.351) S蛋白 (spike protein of 501Y.V2, on live virus) (SARS-CoV-2 501Y.V2 (B.1.351), UniProt P0DTC2 14-1273); assay: cell-based or functional assay
# [2] = target: SARS-CoV-2突变株D614G S蛋白 (spike protein of the D614G mutant strain, on live virus) (SARS-CoV-2 D614G mutant strain, UniProt P0DTC2 14-1273); assay: cell-based or functional assay
binder,measurement,setting,value
B1,"IC50, live SARS-CoV-2 neutralisation on Vero E6 cells (plaque / focus assay)",[1],0.013 µg/mL
same,"IC50, live SARS-CoV-2 neutralisation on Vero E6 cells (plaque / focus assay)",[2],0.00728 µg/mL
